In PMC6681466 (Chemsuschem, 2018):

Experiments:
[1] = system: Ls7β-HSDH; assay: NADH consumption at […] nm, Michaelis-Menten; type: biochemical, Levilactobacillus spicheri; conditions: 0.5 mM NADH, 50 mM KPi pH 8.0, 10% methanol, 25 °C
[2] = system: Ls7β-HSDH; assay: NADH formation at […] nm, fit with substrate inhibition; type: biochemical, Levilactobacillus spicheri; conditions: 2.0 mM NAD+, 50 mM KPi pH 8.0, 10% methanol, 25 °C
[3] = biological target: T1, Cs7β-HSDH (Clostridium sardiniense, UniProt G9FRD6); assay: NADPH formation at […] nm, fit with substrate inhibition; type: biochemical; conditions: 2.0 mM NADP+, 50 mM KPi pH 8.0, 10% methanol, 25 °C
T1 sequence (G9FRD6 1-261): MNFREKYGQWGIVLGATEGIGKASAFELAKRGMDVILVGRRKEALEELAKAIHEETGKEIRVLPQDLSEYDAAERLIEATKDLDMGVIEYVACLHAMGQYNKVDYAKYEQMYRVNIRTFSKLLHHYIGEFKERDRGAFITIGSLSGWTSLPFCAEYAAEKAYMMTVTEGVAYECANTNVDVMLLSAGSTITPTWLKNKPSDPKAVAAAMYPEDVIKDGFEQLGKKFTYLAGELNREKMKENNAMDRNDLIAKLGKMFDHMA

[4] = system: Ls7β-HSDH; assay: NADH formation at […] nm, fit with substrate inhibition; type: biochemical, Levilactobacillus spicheri; conditions: read-out: UDCA / K m / [mmol L^-1]; 2.0 mM NAD+, 50 mM KPi pH 8.0, 10% methanol, 25 °C
[5] = biological target: T1, Cs7β-HSDH; assay: NADPH formation at […] nm, fit with substrate inhibition; type: biochemical; conditions: 1.0 mM UDCA, 50 mM KPi pH 8.0, 10% methanol, 25 °C
[6] = substrate: C[C@H](CCC(=O)O)[C@H]1CC[C@H]2[C@@H]3C(=O)C[C@@H]4C[C@H](O)CC[C@]4(C)[C@H]3C[C@H](O)[C@]12C; assay: purified protein; conditions: 0.5 mM NADPH, 50 mM KPi pH 8.0, 10% methanol, 25 °C
[7] = substrate: C[C@H](CCC(=O)O)[C@H]1CC[C@H]2[C@@H]3[C@@H](O)C[C@@H]4C[C@H](O)CC[C@]4(C)[C@H]3CC[C@]12C; assay: purified protein; conditions: 2.0 mM NADP+, 50 mM KPi pH 8.0, 10% methanol, 25 °C
[8] = substrate: [H][C@]12CC(=O)[C@@]3([H])[C@]4([H])CC[C@H]([C@H](C)CCC(=O)O)[C@@]4(C)CC[C@]3([H])[C@@]1(C)CC[C@@H](O)C2; assay: purified protein; conditions: 0.5 mM NADPH, 50 mM KPi pH 8.0, 10% methanol, 25 °C

Work on `C[C@H](CCC(=O)O)[C@H]1CC[C@H]2[C@@H]3C(=O)C[C@@H]4C[C@H](O)CC[C@]4(C)[C@H]3CC[C@]12C` [7-oxo-LCA] yielded a Km ([1]; read-out: 7-oxo-LCA / K m / [mmol L^-1]) of 38 ± 14 µM.

With `C[C@H](CCC(=O)O)[C@H]1CC[C@H]2[C@@H]3[C@@H](O)C[C@@H]4C[C@H](O)CC[C@]4(C)[C@H]3CC[C@]12C` [UDCA] the “UDCA / K i /” value [2] was 800 ± 300 µM, the “UDCA / K i /” value [3] was 1400 ± 300 µM and the Km [4] was 156 ± 51 µM.

`C[C@H](CCC(=O)O)[C@H]1CC[C@H]2[C@@H]3C(=O)C[C@@H]4C[C@H](O)CC[C@]4(C)[C@H]3C[C@H](O)[C@]12C` [7-oxo-DCA] showed a Km ([1]; read-out: 7-oxo-DCA / K m / [mmol L^-1]) of 131 ± 28 µM.

In the case of `NC(=O)c1ccc[n+]([C@@H]2O[C@H](COP(=O)(O)OP(=O)(O)OC[C@H]3O[C@@H](n4cnc5c(N)ncnc54)[C@H](OP(=O)(O)O)[C@@H]3O)[C@@H](O)[C@H]2O)c1` [NADP^+], the “NADP^+ / K i /” value [5] is reported as 10000 ± 3000 µM.

B1: Cs7β-HSDH (Clostridium sardiniense) (protein)
chain: T1 sequence (G9FRD6 1-261)
In the case of B1, the Km [6] is reported as 106 ± 5 µM, the kcat [6] is reported as 2.27 ± 0.03 s⁻¹ and the kcat/Km [6] is reported as 21300 M⁻¹ s⁻¹. It also gave a Km [7] of 160 ± 30 µM, a kcat [7] of 3.61 ± 0.34 s⁻¹ and a kcat/Km [7] of 22600 M⁻¹ s⁻¹. The Km [8] was 128 ± 27 µM, the kcat [8] was 1.37 s⁻¹ and the kcat/Km [8] was 10700 M⁻¹ s⁻¹.
